Results on ten molecules are retold here after patent US20110076298A1, “Soluble stabilized trimeric hiv env proteins and uses thereof” (priority 2006, published 2011).

Where two headings read alike, the source gives them in different places.

The nature of series [1]: Detergent collapse effect on 5768.4 SOSIP R6 gp140 preparation, BN-PAGE. It counts as physicochemical. Particulars: 1 hour, room temperature. The protocol: FIG. 15: Detergent “collapse” effect on subtype B 5768.4 HMW aggregate. 0.24 ug of purified subtype B 5768.4 SOSIP R6 gp140 trimer was incubated with 0.05 or 0.1% Tween 20. In addition, similar incubations were performed with NP40, Triton X-100, and SDS (at a final concentration of 0.1%) or the trimer preparation was untreated. Reactions were separated on BN-PAGE and visualized by coomassie G-250 stain. Arrows indicate HMW aggregate, a2M contaminant, trimer and monomer proteins. M stands for the 669 k thyroglobulin and 440 k ferritin molecular weight protein standards.
Tween® 20 Dose effect: 1 ug of purified 5768.4 SOSIP R6 trimer was incubated with varying concentrations of Tween® 20 ranging from 0.1 to 0.0001% (v/v) and incubated for 1 hour at room temperature. Following incubation, samples were analyzed by BN-PAGE as described above. Detergent effect on 5768.4 SOSIP R6 gp140 trimer preparations: 0.24 ug of purified 5768.4 SOSIP R6 trimer was incubated with Triton X-100, NP-40, or SDS to a final detergent concentration of 0.1% (v/v) or with Tween® 20 at concentrations of 0.05 and 0.1% for 1 hour at room temperature. Following incubation, 4× BN-PAGE MOPS sample buffer was added and the samples were immediately analyzed on BN-PAGE at 150 V for 2 hours at room temperature, followed by Coomassie G-250 staining.

In series [2] the test system is HIV-1KNH1144 Env-pseudotyped virus. The series is described as follows: Env-pseudotyped HIV-1 neutralization assay, KNH1144 Env. It counts as cell-based. Particulars: CCR5 inhibitors and RT inhibitor, read-out: Env-pseudotyped neutralization (50% endpoint) KNH1144. Here is the method:
(§1) FIGS. 4A-AF: Inhibition of infection by HIV-1JR-FL (filled circles) or HIV-1KNH1144 (open circles) Env-pseudotyped viruses by MAbs and fusion inhibitors. The viruses were incubated with the indicated concentrations of the inhibitors for 1 h prior to addition to U87.CD4.CCR5 cells. The luciferase content of cell lysates was determined after 3-4 days.
(§2) The generation and quantification of Env-pseudotyped HIV-1 viruses and their subsequent use in neutralization assays have been described previously.^45,65. U87.CD4.CCR5 target cells were used because the input pseudoviruses had the R5 phenotype. The amount of input pseudovirus was normalized by infectivity (virus titer). Virus infection was measured by determining luciferase expression in relative light units (RLU) in target cell lysates, according to the manufacturer's instructions (Promega, Madison, Wis.).
(§3) To assess the neutralization sensitivity of viruses bearing subtype A Env proteins, cytoplasmic tail-truncated gp140s from KER2008, KNH1144, KNH1207 and KNH1211 were co-expressed in trans with the pNL4/3.Luc plasmid to form single cycle, replication-incompetent pseudoviruses^72. Pseudovirions bearing the full-length Env protein from HIV-1JR-FL were also studied, for comparison.

Series [3] has as its system HIV-1JR-FL Env-pseudotyped virus. The series is described as follows: Env-pseudotyped HIV-1 neutralization assay, JR-FL Env. It counts as cell-based. As to conditions: CCR5 inhibitors and RT inhibitor, read-out: Env-pseudotyped neutralization (50% endpoint) JR-FL. The protocol:
as §1, §2, §3

Series [4] has as its target KER2008 gp120 (monomeric, subtype A) (HIV-1 KER2008, subtype A). The series is described as follows: ELISA on D7324-captured gp120, half-maximal binding. A general note: In an ELISA, binding on a coated surface is turned into a signal by an enzyme label.
The target of series [5] is KNH1144 gp120 (monomeric, subtype A) (HIV-1 KNH1144, subtype A). The description is as above.
The target of series [6] is KNH1207 gp120 (monomeric, subtype A) (HIV-1 KNH1207, subtype A). The series is described as above.
Series [7] deals with KNH1211 gp120 (monomeric, subtype A) (HIV-1 KNH1211, subtype A). The description is as above.
Series [8] addresses Q23-17 gp120 (monomeric, subtype A) (HIV-1 Q23-17, subtype A). The series is described as above.
The target in series [9] is gp120BaL (subtype B) (HIV-1 BaL, subtype B). Described as above.
In series [10] the target is gp120DU151 (subtype C) (HIV-1 DU151, subtype C). The series is described as above.
Series [11] has as its target gp120JR-FL (monomeric, subtype B) (HIV-1 JR-FL, subtype B). Described as above.
Series [12] is described as follows: Oligomeric stability of purified SOSIP gp140 trimers to detergents, BN-PAGE. In kind it is physicochemical. Particulars: 0.1% (v/v), 1 h, 25° C. The protocol:
Biophysical and antigenic characterization of purified trimers derived from KNH1144 SOSIP gp140. (A) Trimeric KNH1144 SOSIP gp140 was treated with 0.1% (v/v) ionic (SDS) and non-ionic (NP40, Nonidet-P40; Tw20 (Tween®-20); TX100 (Triton X-100) detergents for 1 h at 25° C. before BN-PAGE analysis. (B) Trimeric KNH1144 SOSIP gp140 was incubated with 0.5 μg/ml of the indicated MAbs or proteins, and then immunoprecipitated with protein G sepharose prior to analysis by SDS-PAGE.
The oligomeric stability of purified SOSIP gp140 trimers was determined essentially as previously described.^44 Briefly, 50 ng of protein was treated with 0.1% (v/v) SDS, Nonidet P-40, Tween®-20 or Triton X-100 for 1 h at room temperature, followed by analysis on BN-PAGE. The various oligomeric forms of Env resolved on the gel were detected by CA13 immunoblotting.
A purified Env trimer should meet several criteria to establish that it has been synthesized, folded, cleaved and otherwise post-translationally modified correctly. For example, it is important to establish that SOSIP gp140 trimers are oligomerized via non-covalent interactions between the gp41ECTO subunits, and not via aberrant inter-subunit disulfide bonds^40,66,67. For these assessments, purified KNH1144 SOSIP gp140 trimers were treated for 1 h at 25° C. with 0.1% (v/v) ionic (SDS) and non-ionic (NP-40, Tween®-20, Triton X-100) detergents and then analyzed by BN-PAGE. […] This is consistent with studies of JR-FL SOSIP gp140 trimers^44.

Series [13] concerns the target BB359 gp120 (monomeric, subtype A) (HIV-1 BB359, subtype A). The series can be described thus: ELISA on D7324-captured gp120, half-maximal binding.
In series [14] the target is HIV-1KER2008 Env on Env-pseudotyped virus (HIV-1 KER2008, subtype A). The series is described as follows: cell-based or functional assay.
In series [15] the target is HIV-1KNH1144 Env on Env-pseudotyped virus (HIV-1 KNH1144, subtype A). The series can be described thus: cell-based or functional assay.
Series [16] has as its target HIV-1KNH1207 Env on Env-pseudotyped virus (HIV-1 KNH1207, subtype A). The series can be described thus: cell-based or functional assay.
Series [17] has as its target HIV-1KNH1211 Env on Env-pseudotyped virus (HIV-1 KNH1211, subtype A). The series is described as follows: cell-based or functional assay.

In the case of “5768.4 SOSIP R6 gp140: subtype B 5768.4 envelope modified to the soluble SOSIP R6 gp140 trimer; SEQ ID NO:10”, in series [1] (0.1%), the “effect of NP40 on HMW aggregate” value is “collapse of HMW aggregate to trimer”; the “effect of SDS” value was “breaking down the entire 5768.4 gp140 protein to resulting monomers”; the “effect of Triton X-100 on HMW aggregate” value is “capable of collapsing HMW aggregate to trimer, however, some breakdown to monomeric 5768.4 was observed”. The “effect of Tween (Tween 20 and Tween 80) on HMW aggregate” value in series [1] (0.1 and 0.05%) is given as “effectively collapsed HMW aggregate to trimers”.

As to `Cc1cn([C@H]2C[C@H](N=[N+]=[N-])[C@@H](CO)O2)c(=O)[nH]c1=O` [AZT], the IC50 in [2] was 240 nM; in series [3], 220 nM.

`CCO/N=C(\c1ccc(Br)cc1)C1CCN(C2(C)CCN(C(=O)c3c(C)cc[n+]([O-])c3C)CC2)CC1` [SCH-C]: the results for the IC50 in series [2] (Human immunodeficiency virus 1) and in series [3] (Human immunodeficiency virus 1) were 0.04 nM and 0.2 nM, respectively.

With `COC[C@@H](c1ccc(C(F)(F)F)cc1)N1CCN(C2(C)CCN(C(=O)c3c(C)ncnc3C)CC2)C[C@@H]1C` [SCH-D], the figures for the IC50 in series [2] (Human immunodeficiency virus 1) and in [3] (Human immunodeficiency virus 1) were 0.01 nM and 0.1 nM, respectively.

With “CD4-immunoglobulin G2 (CD4-IgG2) protein (from UniProt P01730 26-204) (Fc fusion)”, the EC50 in series [4] came to 0.236 µg/mL; in series [5] it was 0.103 µg/mL; in series [6], 0.068 µg/mL; in series [7], 0.063 µg/mL; in [8] it was 0.083 µg/mL; in series [9], 0.057 µg/mL. The 50% effective concentration (EC50) in [10] was 0.09 µg/mL; in series [11], 0.046 µg/mL.

As to “KNH1144 SOSIP gp140: soluble, disulfide-stabilized, I571P-modified cleaved trimeric gp140 of HIV-1 subtype A KNH1144”, in series [12], the “adverse effects of NP-40 on trimers” value is listed as “little”; the “adverse effects of Triton X-100 on trimers” value is recorded as “little”; the “adverse effects of Tween-20 on trimers” value is “no”; the “effect of SDS on trimers” value is “completely dissociate into dimers and monomers”.

As for MAb CA13 (ARP 3119) (antibody), the EC50 in series [13] is 0.406 µg/mL; in [4], 1.57 µg/mL; in series [5], 0.636 µg/mL; in series [6], 0.337 µg/mL; in series [7] it was 0.176 µg/mL; in [8], 0.094 µg/mL. Moreover, the EC50 in series [9] was 0.059 µg/mL; in [10], 0.043 µg/mL; in [11], over 9 µg/mL.

Consider human monoclonal IgG 2F5 (antibody), for which the IC50, neutralization of Env-pseudotyped virus in series [14] was over 3 µg/mL; in series [15], over 3 µg/mL; in series [16] it was 0.01 µg/mL; in series [17], 0.03 µg/mL. The figures for the IC90, neutralization of Env-pseudotyped virus in [16] and in [17] were 0.21 µg/mL and 0.99 µg/mL, respectively.

On to human monoclonal IgG 2G12 (antibody), for which the EC50 in series [13] was over 1 µg/mL; in series [4], 0.064 µg/mL; in series [5], over 1 µg/mL; in series [6], 0.478 µg/mL; in series [7] it was over 1 µg/mL; in series [8] it was 0.54 µg/mL. Also, the EC50 in series [9] is 0.012 µg/mL; in series [10] it was over 1 µg/mL; in [11] it was 0.061 µg/mL.

As to human monoclonal IgG b12 (antibody), the IC90, neutralization of Env-pseudotyped virus is over 3 µg/mL in [14], over 3 µg/mL in series [15], 0.9 µg/mL in series [16] and 1.9 µg/mL in series [17]. The IC50, neutralization of Env-pseudotyped virus was 0.21 µg/mL in [16] and 1.14 µg/mL in series [17]. In addition, the EC50 in series [13] is over 1 µg/mL; in series [4], over 1 µg/mL; in [5], 0.642 µg/mL; in series [6], 0.092 µg/mL; in [7] it was 0.033 µg/mL; in series [8], over 1 µg/mL. Besides, the EC50 was found to be 0.015 µg/mL in series [9], 0.018 µg/mL in [10] and 0.027 µg/mL in series [11].

Usually EC50 stands for the concentration that produces a half-maximal response.
